For data set [1], the target named is T1, psBBOX (Pseudomonas sp. AK-1, UniProt P80193).
T1 construct: recombinant, purified on HisTrap and Superdex S200; metal-free buffer
T1 sequence (P80193 1-383): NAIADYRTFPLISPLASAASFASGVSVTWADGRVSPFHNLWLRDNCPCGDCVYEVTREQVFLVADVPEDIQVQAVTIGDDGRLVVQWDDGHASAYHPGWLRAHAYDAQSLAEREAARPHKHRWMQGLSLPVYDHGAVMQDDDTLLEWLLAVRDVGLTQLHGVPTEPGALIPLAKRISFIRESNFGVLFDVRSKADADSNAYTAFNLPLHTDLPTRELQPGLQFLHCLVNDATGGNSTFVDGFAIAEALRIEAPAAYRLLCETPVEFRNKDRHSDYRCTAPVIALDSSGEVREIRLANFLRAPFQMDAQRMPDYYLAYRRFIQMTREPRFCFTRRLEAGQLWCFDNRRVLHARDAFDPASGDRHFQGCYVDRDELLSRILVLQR
Nature of the data set: 1H NMR (CPMG) protein titration. In kind it is binding.

Substrate in data set [2]: C[N+](C)(C)CCCC(=O)[O-]
Put plainly: LC-MS hydroxylation kinetics. In kind it is biochemical, Pseudomonas sp. AK-1. Particulars: […] psBBOX, […] FeSO4, […] 2OG, […] ascorbate, Tris pH […] K. An excerpt: LC-MS hydroxylation kinetics on psBBOX

As to `C[N+](C)(C)CCCC(=O)[O-]` [compound 1, γBB], in data set [1], the Kd worked out at 5 µM.

B1: psBBOX (Pseudomonas sp. AK-1) (protein)
chain: NAIADYRTFPLISPLASAASFASGVSVTWADGRVSPFHNLWLRDNCPCGDCVYEVTREQVFLVADVPEDIQVQAVTIGDDGRLVVQWDDGHASAYHPGWLRAHAYDAQSLAEREAARPHKHRWMQGLSLPVYDHGAVMQDDDTLLEWLLAVRDVGLTQLHGVPTEPGALIPLAKRISFIRESNFGVLFDVRSKADADSNAYTAFNLPLHTDLPTRELQPGLQFLHCLVNDATGGNSTFVDGFAIAEALRIEAPAAYRLLCETPVEFRNKDRHSDYRCTAPVIALDSSGEVREIRLANFLRAPFQMDAQRMPDYYLAYRRFIQMTREPRFCFTRRLEAGQLWCFDNRRVLHARDAFDPASGDRHFQGCYVDRDELLSRILVLQR
notes: recombinant, purified on HisTrap and Superdex S200; metal-free buffer
For B1, in data set [2], the Km was 1000 ± 210 µM, the Vmax was 169 µM/min and the kcat came out at 7.02 ± 0.77 s⁻¹.

These data come from publication PMC4736438, “Cation–π Interactions Contribute to Substrate Recognition in γ‐Butyrobetaine Hydroxylase Catalysis” (Chemistry (Weinheim an Der Bergstrasse, Germany), 2015).
